Assay results published in patent US20150011730A1 (UNIVERSITY OF SOUTH CAROLINA, published 2015).
No end group written: not given here. Pyrazole N‑cap, 4‑chlorophenylpyrazole (R1 H, R2 Cl, R3 H, R4 CH3, W N, X N, Y C, Z C) = not defined here

Experiments:
Experiment in all cases: FP binding assay
[1] = molecular target: T1, CDK4/cyclin D1 (as used in the binding assay) (UniProt P11802 1-303; P24385 1-295)
T1 construct: kept apart from the GST-tagged kinase-assay complex m2; also called CDK4/D1

[2] = molecular target: CDK2/cyclin A (as used in the binding assay) (UniProt P24941 1-298; P20248 1-432)
[3] = molecular target: T1, CDK4/cyclin D1 (as used in the binding …); remark: listed apart in the source

fold less active relative to the triazole N capping group [1]: ≥ 4 fold
IC50 [2]: 33.7 µM
IC50 [3]: 49 µM
B1: SCCP 5765 (Pyrazole N-cap ligated to RLIF) (peptide)
peptide: {Pyrazole N‑cap, 4‑chlorophenylpyrazole (R1 H, R2 Cl, R3 H, R4 CH3, W N, X N, Y C, Z C)}-RLIF
modifications: reading uncertain; also: cap structure given only by scaffold parameters
notes: also called 4-chlorophenylpyrazole
